Reference: US20160355553A1 (Janssen / Centocor, published 2016)

Tests used:
[1] = molecular target: HK68 H3mini2a-linker+cl9_+10+12+16+CG7-GCN4T (influenza A virus H3N2, UniProt Q91MA7 17-566); assay: FACS on HEK293F
[2] = molecular target: HK68 H3mini2a-linker+cl9_+10+12+17+CG7-GCN4T (influenza A virus H3N2, UniProt Q91MA7 17-566); assay: FACS on HEK293F
[3] = molecular target: H3 HK68 mini2a-linker2+cl9_+10+12+GCN4T (influenza A virus H3N2, UniProt Q91MA7 17-566); assay: FACS on HEK293F
[4] = molecular target: HK68 H3mini2a-linker+cl9_+10+12+19+GCN4T (influenza A virus H3N2, UniProt P12584 1-550); assay: FACS on HEK293F
[5] = molecular target: hemagglutinin of influenza virus A/EW/MPF461/07 (H5) (influenza A virus H5); assay: cell-based or functional assay
[6] = molecular target: hemagglutinin of influenza virus A/EW/MPH571/08 (H8) (influenza A virus H8); assay: cell-based or functional assay
[7] = molecular target: hemagglutinin of influenza virus A/Johannesburg/33/94 (H3) (influenza A virus H3); assay: cell-based or functional assay
[8] = molecular target: hemagglutinin of influenza virus A/Hong Kong/1073/99 (H9) (influenza A virus H9); assay: cell-based or functional assay
[9] = molecular target: hemagglutinin of influenza virus A/Panama/2007/1999 (H3) (influenza A virus H3); assay: cell-based or functional assay
[10] = molecular target: hemagglutinin of influenza virus A/Hong Kong/1/68 (H3) (influenza A virus H3N2, UniProt Q91MA7 17-566); assay: cell-based or functional assay
[11] = molecular target: hemagglutinin of influenza virus A/Env/MPU3156/05 (H2) (influenza A virus H2); assay: cell-based or functional assay
[12] = molecular target: hemagglutinin of influenza virus A/Brisbane/59/2007 (H1) (influenza A virus H1N1, UniProt B4URD6 18-565); assay: cell-based or functional assay
Mal2506-04 B-m2 = molecular target: T1, Mal2506-04 B-m2 (influenza B virus, UniProt P03461 6-574); assay: FACS, transfected cells
T1 chain: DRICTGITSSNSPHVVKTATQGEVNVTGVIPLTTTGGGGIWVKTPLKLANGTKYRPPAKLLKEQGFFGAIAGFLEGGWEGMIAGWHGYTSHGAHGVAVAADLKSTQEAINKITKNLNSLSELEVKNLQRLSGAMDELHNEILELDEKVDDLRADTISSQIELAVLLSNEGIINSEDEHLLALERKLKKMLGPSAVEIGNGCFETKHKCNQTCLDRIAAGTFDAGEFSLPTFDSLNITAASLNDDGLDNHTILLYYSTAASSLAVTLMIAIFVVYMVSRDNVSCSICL

FL4-06 B-m2-CL1+5 = molecular target: T2, FL4-06 B-m2-CL1+5 (influenza B virus, UniProt P03461 6-574); assay: FACS, transfected cells
T2 chain: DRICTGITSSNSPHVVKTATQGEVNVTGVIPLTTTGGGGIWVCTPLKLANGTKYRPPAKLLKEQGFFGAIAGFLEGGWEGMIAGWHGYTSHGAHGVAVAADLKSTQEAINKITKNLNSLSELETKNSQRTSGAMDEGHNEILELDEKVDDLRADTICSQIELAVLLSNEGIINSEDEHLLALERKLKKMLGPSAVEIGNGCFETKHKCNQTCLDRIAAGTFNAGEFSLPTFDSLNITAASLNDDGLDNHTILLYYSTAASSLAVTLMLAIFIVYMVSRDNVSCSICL

Mal2506-04 B-m2-CL1+5 = molecular target: T3, Mal2506-04 B-m2-CL1+5 (influenza B virus, UniProt P03461 6-574); assay: FACS, transfected cells
T3 chain: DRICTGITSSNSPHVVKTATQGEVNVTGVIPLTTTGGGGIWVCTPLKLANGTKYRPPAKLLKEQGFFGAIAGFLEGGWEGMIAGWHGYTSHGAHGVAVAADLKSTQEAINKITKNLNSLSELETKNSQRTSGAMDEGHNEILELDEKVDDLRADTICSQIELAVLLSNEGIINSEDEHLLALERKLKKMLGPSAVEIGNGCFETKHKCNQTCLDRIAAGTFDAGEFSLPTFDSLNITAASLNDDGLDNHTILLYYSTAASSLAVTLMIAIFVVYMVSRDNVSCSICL

FL4-06 B-m2-CL1+5-GCN4b = molecular target: T4, FL4-06 B-m2-CL1+5-GCN4b (influenza B virus, UniProt P03461 6-574); assay: FACS, transfected cells
T4 chain: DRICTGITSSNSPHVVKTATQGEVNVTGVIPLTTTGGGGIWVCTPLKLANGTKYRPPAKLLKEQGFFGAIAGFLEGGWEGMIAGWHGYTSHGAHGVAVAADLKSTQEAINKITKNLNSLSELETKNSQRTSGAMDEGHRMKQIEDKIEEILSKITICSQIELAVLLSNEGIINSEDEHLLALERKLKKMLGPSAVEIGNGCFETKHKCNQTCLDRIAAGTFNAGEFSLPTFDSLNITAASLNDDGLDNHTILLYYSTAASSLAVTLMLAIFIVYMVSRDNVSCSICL

[13] = molecular target: T5, Mal2506-04 B-m2-CL1+5-GCN4b (influenza B virus, UniProt P03461 6-574); assay: FACS, transfected cells
T5 chain: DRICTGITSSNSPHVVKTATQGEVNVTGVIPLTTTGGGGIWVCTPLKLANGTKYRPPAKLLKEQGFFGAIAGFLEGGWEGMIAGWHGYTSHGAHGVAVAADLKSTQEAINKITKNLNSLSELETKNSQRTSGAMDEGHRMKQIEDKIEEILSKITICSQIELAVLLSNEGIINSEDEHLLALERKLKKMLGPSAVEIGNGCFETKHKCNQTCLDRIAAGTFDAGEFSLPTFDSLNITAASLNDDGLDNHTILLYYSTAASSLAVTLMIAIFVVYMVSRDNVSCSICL

Row | Binder | binding result [1] | binding result [2] | binding result [3] | binding result [4] | virus neutralization assay on MDCK cells, geomean IC50 [5] [µg/mL] | virus neutralization assay on MDCK cells, geomean IC50 [6] [µg/mL] | virus neutralization assay on MDCK cells, geomean IC50 [7] [µg/mL] | virus neutralization assay on MDCK cells, geomean IC50 [8] [µg/mL] | virus neutralization assay on MDCK cells, geomean IC50 [9] [µg/mL] | virus neutralization assay on MDCK cells, geomean IC50 [10] [µg/mL] | virus neutralization assay on MDCK cells, geomean IC50 [11] [µg/mL] | virus neutralization assay on MDCK cells, geomean IC50 [12] [µg/mL] | binding result (Mal2506-04 B-m2) | binding result (FL4-06 B-m2-CL1+5) | binding result (Mal2506-04 B-m2-CL1+5) | binding result (FL4-06 B-m2-CL1+5-GCN4b) | binding result [13]
1 | CR8057 (antibody, V domains shown) VH: EVQLVESGGGLVQPGGSLRLSCAASGFTDSVIFMSWVRQAPGKGLECVSIIYIDDSTYYADSVKGRFTISRHNSMGTVFLEMNSLRPDDTAVYYCATESGDFGDQTGPYHYYAMDV VL: QSALTQPASVSGSPGQSITISCTGSSGDIGGYNAVSWYQHHPGKAPKLMIYEVTSRPSGVSDRFSASRSGDTASLTVSGLQAEDEAHYYCCSFADSNILI | no binding (tested: 5 ug/ml) | no binding (tested: 5 ug/ml) | no binding (tested: 5 ug/ml) | no binding (tested: 5 ug/ml) |  |  |  |  |  |  |  |  |  |  |  |  | 
2 | CR9114 (antibody, V domains shown) VH: QVQLVQSGAEVKKPGSSVKVSCKSSGGTSNNYAISWVRQAPGQGLDWMGGISPIFGSTAYAQKFQGRVTISADIFSNTAYMELNSLTSEDTAVYFCARHGNYYYYSGMDVWGQGTTVTVSS VL: SYVLTQPPAVSGTPGQRVTISCSGSDSNIGRRSVNWYQQFPGTAPKLLIYSNDQRPSVVPDRFSGSKSGTSASLAISGLQSEDEAEYYCAAWDDSLKGAVFGGGTQLTVL |  |  |  |  | 10.5 | 8.8 | 21.9 | 4.4 | 39.9 | 19 | 8.8 | 2.6 | no binding | no binding | no binding | no binding | no binding
